From article doi:10.1101/677344 come the findings set out here.

Assay [1] deals with AausFP2 (Aequorea cf. australis). Put plainly: crystal structure.
Assay [2] deals with AausFP1 (Aequorea cf. australis). Put plainly: crystal structure.

In general, stoichiometry N refers to the number of molecules, sites or subunits per partner or assembly. In assay [1], AausFP2 (natural protein) returned a stoichiometry N of 2.
AausFP1 (natural protein) returned a stoichiometry N in assay [2] of 2.
